Results taken from the supplement of paper PMC10567573.

B1: CDC14A (parent)
chain: LWVQGDIFRSKLKNRPSSEGSINK

Variants of: B1
Test: protein stability index of a GFP-peptide fusion (GPS, HEK-293T) (PSI 1-6); higher = more stable
Settings: c terminus: a fixed tail appended
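Further: lentivirally expressed fusions sorted by FACS into six bins by GFP to DsRed ratio, PSI derived from sequencing read proportions per bin multiplied by bin number.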

Protein stability index, by site and new letter:
W2: R 3.46, T 4.6, V 2.6, Y 2.67, S 4.49
G5: I 2.35, D 3.21, W 1.87, N 2.63, F 2.59, P 2.69, R 2.35, M 1.75, Y 1.39, E 3.34, C 2.3, L 2.92, V 1.53, S 2.52, T 2.29, H 2.52, Q 2.76, K 2.3, A 2.06
Q4: N 2.66, W 1.82, C 2.46, P 2.74, Y 1.95, E 2.19, I 2.11, S 3.29, A 1.9, R 1.87, V 1.81, K 2.19, T 2.41, H 2.67, F 1.73, L 2.62
P16: R 2.7, A 2.8, H 2.52, F 2.49, K 2.68, S 2.52, M 2.17, Q 2.5, T 2.6, V 1.64, N 2.51, E 3.38, L 1.57, C 1.92, Y 1.91, I 2.36, W 1.74, D 2.89, G 2.02
R9: G 2.56, T 2.85, K 3.02, M 2.18, L 2.35, P 3.18, F 2.57, E 3.21, S 2.6, Y 2.37, A 3.05, Q 2.91, C 2.22, D 3.68, H 2.55, I 2.4, N 3.4, W 1.88, V 2.65
S17: I 2.08, E 2.43, Y 2.08, Q 2.05, D 2.85, K 2.45, T 2.82, M 1.83, H 2.77, A 3.12, F 1.66, C 2.89, W 2.17, G 2.87, V 2.47, P 2.41, L 2.63, N 3.48
E19: L 1.97, T 1.88, I 2.24, F 1.7, M 2.02, K 2.21, A 2.33, Q 2.49, P 1.95, C 2.44, Y 1.58, G 2.24, N 2.48, R 2.35, H 2.36, D 2.88, V 2.17, S 2.29, W 1.88
S10: T 2.45, L 3.46, N 2.48, F 2.05, P 2.27, W 1.54, Y 3.11, D 3.07, K 2.35, G 3.17, H 2.48, C 2.3, R 3.23, V 2.92, E 2.44, A 2.29, Q 3.37, M 2.49, I 2.31
K13: L 2.94, D 2.87, G 2.05, P 3.01, V 2.41, I 2.15, R 2.67, M 1.93, C 2.2, F 1.68, E 2.53, S 2.54, Q 2.69, N 2.31, Y 1.89, H 2.55, T 2.7, A 2.38
G20: K 3.44, L 2.69, M 2.73, R 2.76, P 2.04, F 2.3, C 2.82, A 2.06, N 2.76, E 3.9, I 2.61, D 2.64, Q 2.61, H 2.74
V3: L 2.07, T 3.12, R 3.34, A 3.45, C 2.94, M 2.73, D 3.58, Y 2.89, G 3.18, N 2.71, H 1.99, Q 3.32, E 4.85, K 3.26, S 3.06, P 3.94, F 2.64, W 2.55
N14: M 2, T 1.88, D 2.67, R 1.91, Y 2.53, L 2.47, K 2.55, Q 2.36, C 2.13, W 2.15, G 2.24, I 2.43, H 2.26, P 2.45, S 1.99, E 2.7, A 2.6, F 2.48
F8: P 4.1, D 3.67, K 3.23, S 3.34, V 3.06, L 2.75, W 2.51, N 3.01, E 4.43, M 2.42, T 3.3, R 2.92, G 3.01, Q 3.78, Y 3.25, C 3.14, H 2.97, I 2.62, A 3.43
I7: K 3.54, A 3.29, V 2.98, R 2.31, D 3.35, H 3.37, E 3.71, P 3.15, M 2.31, Y 2.66, F 2.01, W 1.71, T 3.3, G 2.83, Q 2.97, S 3.21, N 3.82, L 2.04, C 3.09
L12: R 2.22, T 3.17, N 2.82, G 2.83, H 2.71, S 2.89, F 2.29, Y 2.61, E 3.51, I 2.8, W 2.42, A 3.21, Q 2.92, P 3.09, K 3.16, D 2.83, C 3.03, M 2.41, V 2.36
S18: D 3.11, G 4.75, Q 2.39, V 2.25, Y 2.01, A 2.58, F 2.37, K 2.59, C 3.17, L 3.55, M 1.8, R 2.42, N 2.54, I 1.84, W 1.46, P 1.91, E 3.11, H 3.27, T 2.45
K11: V 2.36, R 2.72, M 2.49, N 3, P 3.22, F 2.3, A 2.26, W 2.04, I 1.66, H 2.69, S 2.99, L 2.23, Y 1.93, G 3.68, Q 2.33, C 2.22, E 2.63, D 2.38
R15: S 2.66, I 2.52, F 2.39, T 3.26, G 2.91, N 2.57, M 2.07, W 2.25, L 2.92, Y 3.17, Q 3.09, K 3, V 2.78, A 2.81, C 2.54, P 2.81, D 2.61, E 3.02, H 2.62
D6: W 1.37, E 2.63, K 1.74, T 1.84, C 1.8, P 2.34, R 1.9, G 2.64, H 2.24, N 2.83, V 1.43, I 2.69, Y 2.45, S 2.28, M 2.61, A 2.27, Q 1.99, L 1.71, F 1.58
